± gives the standard deviation of the averaged measurements.
Tested on: ATP
Test: switch fluorescence ratio, 500 uM ATP over buffer (Cy3 cluster intensity, sum of 5 cycles each) (fold (ratio)); higher = stronger signal-on switching upon ATP binding; sequences stand for … in TCGTCGGCAGCGTCAGATGTGTATAAGAGACAGTTTTTTTTTTTTTTTTTTTTTTTTT…TC
Details: aptamer strand: ATP DNA aptamer (quencher-CACCTGGGGGAGTATTGCGGAGGAAGG + anchor), 100 nM annealed; ATP concentration: 500 uM
Procedure, shortened: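 Five buffer/ATP imaging cycles were run on Cy3-labelled switching-strand clusters on a modified Illumina MiSeq flow-cell, with NaOH stripping and re-annealing between cycles. In each cycle, clusters annealed to 100 nM quencher-labelled ATP aptamer were imaged in selection buffer, then after 15 min with 500 uM ATP at 22 °C. Per cluster, the fluorescence ratio is summed target-cycle over summed buffer-cycle Cy3 intensity, averaged per switch-domain sequence. Only clusters within 100-1000 RFU were kept.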
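Further: ATP exposure 15 min at 22 °C before imaging.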

Sequence | switch fluorescence ratio
ATTGTTTTGT | 0.987 ± 0.051
ATTTAAAATC | 0.9614 ± 0.0045
ATTTAACGAG | 1.01 ± 0.021
ATTTAAGGGA | 0.982 ± 0.026
ATTTAATACG | 1.02 ± 0.052
ATTTAATTCG | 1.01 ± 0.022
ATTTACCGGA | 1.04 ± 0.052
ATTTACGAT | 1.02 ± 0.049
ATTTACTATA | 1.07 ± 0.0053
ATTTACTGCG | 1.01 ± 0.041
ATTTACTTGT | 1.05 ± 0.094
ATTTAGCGTC | 0.99 ± 0.016
ATTTAGGATT | 1.01 ± 0.018
ATTTAGGCGT | 1 ± 0.039
ATTTAGGGAT | 1.02 ± 0.051
ATTTAGGGCA | 1.02 ± 0.051
ATTTAGGGGT | 1.02 ± 0.057
ATTTAGGTAG | 1.02 ± 0.024
ATTTAGGTGG | 1.02 ± 0.053
ATTTAGGTTT | 1.01 ± 0.012
ATTTAGTGGG | 0.993 ± 0.048
ATTTATAGAT | 0.979 ± 0.028
ATTTATATCA | 1.01 ± 0.024
ATTTATATCC | 1.02 ± 0.013
ATTTATGTTA | 0.985 ± 0.012

Sequence | switch fluorescence ratio
ATTTATGTTG | 1.01 ± 0.031
ATTTATTCCG | 1.01 ± 0.032
ATTTCAAAAG | 0.974 ± 0.023
ATTTCAGATA | 1.01 ± 0.02
ATTTCAGGGA | 0.978 ± 0.024
ATTTCAGTAA | 1.05 ± 0.027
ATTTCAGTAG | 1.016 ± 0.0019
ATTTCAGTTG | 1.011 ± 0.006
ATTTCGGGGA | 0.997 ± 0.042
ATTTCGGGTT | 1.11 ± 0.28
ATTTCGTTCG | 0.977 ± 0.013
ATTTCTAACT | 1.015 ± 0.0022
ATTTCTCAAT | 1.01 ± 0.03
ATTTCTCTCT | 0.993 ± 0.014
ATTTCTTTTT | 1.03 ± 0.0055
ATTTGAACGT | 0.966 ± 0.085
ATTTGAATA | 0.984 ± 0.022
ATTTGACTTA | 1.03 ± 0.015
ATTTGAGAGC | 0.987 ± 0.017
ATTTGAGCAG | 1.01 ± 0.011
ATTTGATGAG | 0.987 ± 0.045
ATTTGCAACT | 0.994 ± 0.026
ATTTGCGATT | 1.03 ± 0.019
ATTTGCGTTC | 1.01 ± 0.056
ATTTGCTTGT | 1.01 ± 0.021

Sequence | switch fluorescence ratio
ATTTGGAAGA | 1.01 ± 0.0048
ATTTGGAAGT | 1.02 ± 0.018
ATTTGGACGG | 0.948 ± 0.026
ATTTGGATAA | 0.9893 ± 0.0066
ATTTGGATGT | 1 ± 0.026
ATTTGGGAAG | 1.01 ± 0.021
ATTTGGGCTG | 0.999 ± 0.015
ATTTGGGGAG | 1.02 ± 0.048
ATTTGGGGGT | 0.997 ± 0.023
ATTTGGTTGG | 0.987 ± 0.044
ATTTGGTTTC | 0.991 ± 0.025
ATTTGTAGGT | 0.9967 ± 0.0019
ATTTGTCGGC | 1.05 ± 0.051
ATTTGTCGTA | 0.997 ± 0.029
ATTTGTGGGA | 1 ± 0.029
ATTTGTTACG | 1.01 ± 0.046
ATTTGTTGAT | 1 ± 0.021
ATTTGTTGG | 1.029 ± 0.0076
ATTTGTTTCT | 0.9993 ± 0.0079
ATTTGTTTTA | 1.08 ± 0.17
ATTTTAAAGG | 0.977 ± 0.027
ATTTTAAATG | 1.04 ± 0.03
ATTTTAACGC | 1.048 ± 0.0063
ATTTTAATGC | 1.018 ± 0.0019
ATTTTAGAGC | 1.05 ± 0.038

Sequence | switch fluorescence ratio
ATTTTAGGAC | 1.03 ± 0.025
ATTTTAGGTT | 0.984 ± 0.03
ATTTTATGTG | 0.991 ± 0.018
ATTTTATTGT | 1 ± 0.05
ATTTTCAACT | 1.03 ± 0.018
ATTTTCATAC | 1.08 ± 0.026
ATTTTCCTTT | 1.02 ± 0.039
ATTTTCGGAT | 0.975 ± 0.01
ATTTTCGTTA | 1.04 ± 0.024
ATTTTGATAA | 1.02 ± 0.021
ATTTTGCCGG | 0.965 ± 0.013
ATTTTGGACC | 1 ± 0.021
ATTTTGGGAC | 1.03 ± 0.047
ATTTTGTAGT | 1.02 ± 0.029
ATTTTGTCTT | 1.02 ± 0.019
ATTTTGTGAT | 0.994 ± 0.025
ATTTTGTGGA | 0.987 ± 0.015
ATTTTGTTAG | 0.998 ± 0.011
ATTTTGTTGT | 1.03 ± 0.048
ATTTTTAACT | 0.99578 ± 0.00077
ATTTTTACTC | 1.01 ± 0.029
ATTTTTAGCA | 0.99765 ± 0.00045
ATTTTTAGCT | 1.02 ± 0.031
ATTTTTAGGG | 1.02 ± 0.033
ATTTTTCCGT | 1.02 ± 0.019

Sequence | switch fluorescence ratio
ATTTTTCTTC | 1.035 ± 0.0046
ATTTTTGAAC | 0.99 ± 0.019
ATTTTTGGTC | 0.9864 ± 0.0038
ATTTTTGTGA | 0.98 ± 0.013
ATTTTTTAAG | 0.9996 ± 0.0081
ATTTTTTTG | 0.955 ± 0.021
CAAAAAGAAT | 1.003 ± 0.0048
CAAAAAGAGT | 1.014 ± 0.009
CAAAAAGCAC | 1.06 ± 0.036
CAAAAATTTT | 0.986 ± 0.026
CAAAAGAACG | 0.975 ± 0.031
CAAAAGATTC | 1.045 ± 0.0095
CAAAAGTCGA | 1.04 ± 0.031
CAAAATATGG | 0.984 ± 0.051
CAAAATTCCG | 1.08 ± 0.017
CAAACGTGGG | 0.98611 ± 0.00012
CAAAGAACTT | 1.01 ± 0.018
CAAAGCATCT | 1.09 ± 0.011
CAAAGCGCTG | 0.986 ± 0.012
CAAAGGAAGC | 1.02 ± 0.05
CAAAGGCAGG | 1.004 ± 0.0065
CAAAGGGGAT | 0.99484 ± 0.00073
CAAAGTAATT | 0.983 ± 0.033
CAAAGTACGT | 1.18 ± 0.043
CAAAGTTAAC | 0.949 ± 0.0098

Sequence | switch fluorescence ratio
CAAAGTTAGG | 0.97 ± 0.013
CAAAGTTGCG | 0.984 ± 0.017
CAAAGTTTCG | 1.04 ± 0.0012
CAAATAAAGG | 1.01 ± 0.025
CAAATACCTG | 1.04 ± 0.019
CAAATACGTT | 1.01 ± 0.029
CAAATATTTT | 0.996 ± 0.017
CAAATGTCAG | 0.99 ± 0.028
CAAATTATGG | 1.03 ± 0.01
CAAATTTGGT | 0.993 ± 0.032
CAAATTTTCT | 0.978 ± 0.025
CAACCGTGAA | 1.91 ± 0.92
CAACCTGCAG | 1.06 ± 0.012
CAACGCCTCC | 3.52 ± 0.082
CAACGGGTTC | 1.03 ± 0.024
CAACTATTGC | 1.04 ± 0.036
CAACTATTTG | 1 ± 0.013
CAACTCAGTA | 0.988 ± 0.016
CAAGAAATTA | 1 ± 0.011
CAAGAATGTA | 0.973 ± 0.024
CAAGACCACT | 1.06 ± 0.045
CAAGACTTCG | 1.01 ± 0.052
CAAGAGGGAC | 1.04 ± 0.13
CAAGATATAT | 1 ± 0.016
CAAGATTCCA | 1.016 ± 0.0077

Sequence | switch fluorescence ratio
CAAGCGACGG | 1.03 ± 0.022
CAAGCGATGG | 1.63 ± 0.065
CAAGGCTCAA | 1 ± 0.0013
CAAGGGCCAG | 0.973 ± 0.07
CAAGGGGGA | 0.995 ± 0.02
CAAGGGGGGG | 0.99 ± 0.034
CAAGGGGGTA | 0.995 ± 0.037
CAAGGGTCCG | 0.991 ± 0.045
CAAGGGTTGT | 0.992 ± 0.0024
CAAGGTTGAG | 0.979 ± 0.034
CAAGTAGGG | 0.956 ± 0.052
CAAGTAGTGG | 1.03 ± 0.011
CAAGTATATT | 0.968 ± 0.032
CAAGTATCAT | 0.996 ± 0.076
CAAGTATGAG | 0.9829 ± 0.0065
CAAGTGACTT | 1.02 ± 0.016
CAAGTGCTTA | 0.9578 ± 0.0081
CAAGTGGCAC | 0.977 ± 0.022
CAAGTTAAGG | 1.02 ± 0.013
CAAGTTTGGG | 0.982 ± 0.019
CAAGTTTTTT | 0.984 ± 0.016
CAATAAAAG | 0.9766 ± 0.0071
CAATAAAGCT | 1.07 ± 0.041
CAATACTCAA | 2.14 ± 0.023
CAATACTTG | 1.027 ± 0.0074

Sequence | switch fluorescence ratio
CAATAGAGAG | 0.997 ± 0.024
CAATAGGAGA | 0.981 ± 0.028
CAATAGGGGC | 0.969 ± 0.03
CAATATTATG | 1.02 ± 0.02
CAATCAACCG | 1.064 ± 0.0015
CAATCATAGT | 0.989 ± 0.028
CAATCATGG | 1.01 ± 0.019
CAATCTTCGT | 1.02 ± 0.021
CAATGAAATC | 1.02 ± 0.027
CAATGAGGTG | 1.08 ± 0.036
CAATGGAAGG | 1.03 ± 0.025
CAATGGGGGG | 1.02 ± 0.03
CAATGGTCCA | 1.03 ± 0.024
CAATGGTGGT | 1.01 ± 0.028
CAATGTGAGG | 1.01 ± 0.0063
CAATGTGGGA | 1.01 ± 0.021
CAATGTGTTT | 1.01 ± 0.035
CAATGTTGAG | 1 ± 0.032
CAATGTTGAT | 1.01 ± 0.026
CAATTAGGGA | 0.985 ± 0.017
CAATTATCGC | 0.988 ± 0.028
CAATTCAGAT | 0.952 ± 0.028
CAATTCATTA | 1.02 ± 0.02
CAATTGCGGG | 0.988 ± 0.055
CAATTGCTGT | 1.01 ± 0.012

— the supplement of paper PMC10126150
